Measurements as given in the Immune Epitope Database (IEDB).

Legend:
Experiment in all cases: IEDB peptide-MHC binding, purified MHC/competitive/radioactivity; ≥ and ≤ were set here for values at or beyond the usual limits of such assays
Conditions in all cases: source organism: hepatitis C virus genotype 1a
[1] = biological target: HLA-B*08:01
[2] = biological target: HLA-A*02:01
[3] = biological target: HLA-B*40:01
[4] = biological target: HLA-B*40:02
[5] = biological target: HLA-B*07:02

| Sequence | IC50 [2] [nM] | IC50 [5] [nM] | other results |
| --- | --- | --- | --- |
| HSKKKCDEL | – | – | IC50 [1]: 764 nM |
| VLSDFKTWL | 305 | – | – |
| SLLAPGAKQNV | 513 | – | – |
| LEDRDRSEL | – | – | IC50 [3]: 426 nM; IC50 [4]: 4270 nM |
| RPALVFDIT | – | 43 | – |
| FLVGQLFTF | 67 | – | – |
| IPFYGKAI | – | 497 | – |
| HPALVFDIT | – | 160 | – |
| RLWHYPCTV | 12 | – | – |
| GVDPNIRTGV | 351 | – | – |
